Test results published in patent US20220380475A1 (SORRISO PHARMACEUTICALS, published 2022).
Residue numbers refer to the chain shown, from its start. Names may count otherwise. Where two headings read alike, the source gives them in different places.

Key:
[1] = biological target: cynomolgus monkey soluble IL-6R (from cynomolgus monkey serum) (cynomolgus monkey); test: ratio of gp130 ELISA IC50s on human and cynomolgus sIL-6R
[2] = biological target: cynomolgus monkey soluble IL-6R (from cynomolgus monkey serum) (cynomolgus monkey); test: anti-cynomolgus IL-6R gp130 ELISA (competition): 10x diluted cynomolgus serum, 50 ng/mL human IL-6, coated human gp130
[3] = biological target: T1, recombinant soluble human IL-6R (human, UniProt P08887 20-365); test: gp130 ELISA (competition), parallel human arm: 10 ng/mL human IL-6R, 50 ng/mL human IL-6
T1 sequence: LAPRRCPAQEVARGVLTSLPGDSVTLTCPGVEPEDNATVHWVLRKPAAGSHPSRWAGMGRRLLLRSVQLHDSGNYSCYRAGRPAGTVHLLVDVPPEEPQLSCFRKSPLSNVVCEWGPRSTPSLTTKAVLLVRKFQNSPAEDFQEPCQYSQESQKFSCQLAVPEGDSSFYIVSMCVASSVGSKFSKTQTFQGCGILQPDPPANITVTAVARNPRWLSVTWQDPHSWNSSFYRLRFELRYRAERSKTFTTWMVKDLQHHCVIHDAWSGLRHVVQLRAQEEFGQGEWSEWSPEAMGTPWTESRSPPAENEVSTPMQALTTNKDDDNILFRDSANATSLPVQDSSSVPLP
Description: (§1) The standard anti-cynomolgus monkey IL-6R gp130 ELISA assay detailed under ‘Potency, neutralisation and inhibition’ above was performed to assay the ICVDs in parallel for their ability to neutralise sIL6R in cynomolgous monkey serum and recombinant purified human sIL6R. Briefly, Maxisorp 96-well plates were coated overnight with 50 μl/well 1 μg/ml gp130 then blocked. ICVDs were serially diluted and mixed 1:1 with 200 ng/ml recombinant human IL-6, then 1:1 with either 20 ng/ml recombinant human sIL-6R or a 5-fold dilution of cynomolgus monkey serum and incubated for 1 hour to allow binding before adding to the gp130-coated plates. Bound cynomolgus monkey IL-6R was detected with 50 μl/well either 0.25 μg/ml (for human IL-6R) or 0.5 μg/ml (for monkey serum) BAF227 and then 50 μl/well 1/1000 Extravidin-HRP and the level of neutralisation by the ICVD of IL-6R binding to IL-6/gp130 was determined

[4] = biological target: T2, membrane-bound human IL-6R on TF-1 cells (human, UniProt P08887 20-468); test: cell-based or functional assay
T2 sequence: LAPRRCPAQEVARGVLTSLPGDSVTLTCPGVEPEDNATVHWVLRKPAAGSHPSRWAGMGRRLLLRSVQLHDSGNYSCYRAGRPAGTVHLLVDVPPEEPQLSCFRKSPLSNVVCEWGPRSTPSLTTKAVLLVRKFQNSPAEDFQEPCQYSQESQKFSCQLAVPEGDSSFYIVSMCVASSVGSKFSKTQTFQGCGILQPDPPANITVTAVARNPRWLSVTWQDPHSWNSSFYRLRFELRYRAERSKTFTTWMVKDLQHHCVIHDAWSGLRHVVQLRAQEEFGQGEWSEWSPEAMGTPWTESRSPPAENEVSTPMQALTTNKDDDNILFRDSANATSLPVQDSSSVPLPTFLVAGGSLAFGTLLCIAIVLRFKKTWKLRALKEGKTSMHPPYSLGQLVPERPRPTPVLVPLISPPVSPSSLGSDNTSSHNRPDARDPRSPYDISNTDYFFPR

[5] = biological target: recombinant soluble human IL-6R (human) (UniProt P08887); test: Biacore (SPR): binder fixed to the sensor, soluble human IL-6R flowed over
[6] = biological target: recombinant soluble human IL-6R (human) (UniProt P08887); test: standard gp130 ELISA (competition), Experiment 2; 10 ng/mL IL-6R, 50 ng/mL IL-6
[7] = biological target: recombinant soluble human IL-6R (human) (UniProt P08887); test: gp130 ELISA (competition): inhibition of human sIL-6R/IL-6 complex binding to coated gp130; 20 ng/mL IL6R, 100 ng/mL IL6
[8] = biological target: membrane-bound human IL-6R on TF-1 cells (human) (UniProt P08887); test: cell-based or functional assay
[9] = biological target: recombinant soluble human IL-6R (human) (UniProt P08887); test: cell-based or functional assay
[10] = biological target: membrane-bound human IL-6R on TF-1 cells (human) (UniProt P08887); test: cell-based or functional assay; remark: listed apart in the source
[11] = biological target: T1, recombinant soluble human IL-6R; test: standard gp130 ELISA (competition); reference 5G9
[12] = biological target: T1, recombinant soluble human IL-6R; test: standard gp130 ELISA (competition); 10 ng/mL IL-6R, 50 ng/mL IL-6; column 'Potency'
Description: Mutant 5G9 sequences were produced and tested for their potency in the standard gp130 ELISA. The standard gp130 ELISA has a final assay concentration of 10 ng/mL IL-6R and 50 ng/mL IL-6.

[13] = biological target: T1, recombinant soluble human IL-6R; test: cell-based or functional assay
[14] = biological target: T2, membrane-bound human IL-6R on TF-1 cells; test: cell-based or functional assay; remark: listed apart in the source
[15] = biological target: T1, recombinant soluble human IL-6R; test: Biacore (SPR): ICVD fixed to the sensor, soluble human IL-6R flowed over
Description: The binding kinetics of the trans-selective ID-123V (E. coli produced version of ID-142V) and the cis/trans potent ID-112V (E. coli produced version of ID-144V, but for ID-112V lacking N82Y relative to ID-144V) were compared against tocilizumab in a Biacore study. The ICVDs were fixed to the Biacore sensor plate and soluble human IL-6R was flowed over the plate to detect binding.

[16] = biological target: T1, recombinant soluble human IL-6R; test: standard gp130 ELISA (competition), Experiment 1; 10 ng/mL IL-6R, 50 ng/mL IL-6
Description: (§2) The inhibitory potency and efficacy (maximal inhibition) of the E. coli-produced 5G9 derivatives were confirmed in vitro in the gp130 ELISA, TF-1 cell and M1 cell functional assays measuring responses mediated via human IL-6R. The gp130 assays follow the standard protocol with a final assay concentration of 10 ng/mL IL-6R and 50 ng/mL IL-6.

[17] = biological target: T2, membrane-bound human IL-6R on TF-1 cells; test: cell-based or functional assay; remark: listed apart in the source
[18] = biological target: T1, recombinant soluble human IL-6R; test: standard gp130 ELISA (competition), Experiment 2; 10 ng/mL IL-6R, 50 ng/mL IL-6
Description: as §2

[19] = biological target: T3, cynomolgus monkey soluble IL-6R (from cynomolgus monkey serum) (cynomolgus monkey, UniProt P08887 20-365 (human entry)); test: ratio of gp130 ELISA IC50s on human and cynomolgus sIL-6R
T3 construct: Natural soluble IL-6R present in diluted normal cynomolgus monkey serum; also called cyno IL6R; cynomolgous sIL-6R
T3 chain: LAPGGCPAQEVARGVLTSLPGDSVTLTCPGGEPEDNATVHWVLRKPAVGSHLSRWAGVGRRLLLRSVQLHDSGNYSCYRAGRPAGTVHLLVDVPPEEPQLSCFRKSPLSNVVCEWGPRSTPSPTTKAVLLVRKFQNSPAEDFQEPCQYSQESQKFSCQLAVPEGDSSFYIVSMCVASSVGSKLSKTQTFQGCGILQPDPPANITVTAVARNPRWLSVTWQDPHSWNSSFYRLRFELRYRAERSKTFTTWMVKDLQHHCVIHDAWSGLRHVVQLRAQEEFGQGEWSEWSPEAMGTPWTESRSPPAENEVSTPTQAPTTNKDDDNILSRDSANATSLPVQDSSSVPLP
Description: as §1

[20] = biological target: T3, cynomolgus monkey soluble IL-6R (from …); test: anti-cynomolgus IL-6R gp130 ELISA (competition): 10x diluted cynomolgus serum, 50 ng/mL human IL-6, coated human gp130
Description: as §1

[21] = biological target: T2, membrane-bound human IL-6R on TF-1 cells; test: cell-based or functional assay; remark: listed apart in the source
[22] = biological target: T2, membrane-bound human IL-6R on TF-1 cells; test: cell-based or functional assay; remark: listed apart in the source
[23] = biological target: T1, recombinant soluble human IL-6R; test: gp130 ELISA (competition): inhibition of human sIL-6R/IL-6 complex binding to coated gp130; 20 ng/mL IL6R, 100 ng/mL IL6
Description: (§3) Briefly, Maxisorp 96-well plates were coated overnight with 50 μl/well 0.5 μg/ml gp130 then blocked. ICVDs were serially diluted and mixed 1:1 with 100 ng/ml recombinant human IL-6 then 1:1 with 40 ng/ml recombinant human sIL-6R, and incubated for 1 hour to allow binding before adding to the gp130-coated plates. Bound IL-6R was detected with 50 μl/well 0.250 μg/ml BAF227 and then 50 μl/well 1/1000 diluted Extravidin-HRP and the level of neutralisation by the ICVD of IL-6R binding to IL-6/gp130 was determined.
Dose response curves were obtained (dose response curves of particular ICVDs illustrated in FIG. 1). […] This was confirmed with curve-fitting software (Graphpad Prism), which fitted 4 parameter curves to the data and calculated the IC50s (Table 4.1, below).

[24] = biological target: T1, recombinant soluble human IL-6R; test: gp130 ELISA (competition), second assay, 10 min pre-incubation; 20 ng/mL IL6R, 100 ng/mL IL6
Description: as §3
A separate assay was performed on 21E6 and 7F6 using the same protocol as above with the exception that the ICVD/IL-6R/IL-6 where only incubated with shaking for 10 min before being added to the assay plates.

[25] = biological target: T1, recombinant soluble human IL-6R; test: standard gp130 ELISA (competition); column 'Potency'

tocilizumab Fab
Ratio of human IC50 to cynomolgus IC50 [1]: 0.6
IC50 [2]: 1.13 nM
IC50 [3]: 0.704 nM
IC50 of inhibition of IL-6-induced TF-1 cell proliferation [4]: 15.9 nM

B1: tocilizumab (antibody, part only; not given: constant regions, V domains shown, not shown: another chain or arm of the molecule)
VH: QVQLQESGPGLVRPSQTLSLTCTVSGYSITSDHAWSWVRQPPGRGLEWIGYISYSGITTYNPSLKSRVTMLRDTSKNQFSLRLSSVTAADTAVYYCARSLARTTAMDYWGQGSLVTVSS
VL: DIQMTQSPSSLSASVGDRVTITCRASQDISSYLNWYQQKPGKAPKLLIYYTSRLHSGVPSRFSGSGSGTDFTFTISSLQPEDIATYYCQQGNTLPYTFGQGTKVEIK
Kd [5]: 0.39 nM
EC50 [6]: 1.83 nM
IC50 [7]: 0.97 nM
TF-1 cell assay EC50 (5 ng/ml IL-6) [8]: 1.12 nM
M1 cellular assay EC50 (20 ng/ml IL-6R, 100 ng/ml IL-6) [9]: 5.36 nM
TF-1 cell assay EC50 (5 ng/ml IL-6) [10]: 0.69 nM
Potency in the TF-1 assay ([10]; scale: not given): 0.69

B2: ID-57V (VHH)
VHH: EVQLVESGGGLVQAGGSTRLTCKASGSIININSINVMAWYRQAPGKQRELVAIIGKGGGTNYADFVKGRFTISRDAAKNTVNLQMNSLKPEDTAVYYCYADYEDRDSPFNASWGQGTQVTVSS
notes: Mutant of 5G9; also called 5G9 + F29I; not shown: C-terminal Flag- and His-tags of E. coli constructs
fold increase of IC50 against 5G9 [11]: ~3 fold
IC50 [12]: 0.31 nM

B3: ID-112V (VHH)
VHH: B2 VHH with I29S, Q47G, K89R, R105H
notes: E. coli-produced cis/trans potent 5G9 derivative; also called 5G9 + F29S, Q47G, K89R, R105H; not shown: C-terminal FLAG-6xHis
M1 cellular assay EC50 (20 ng/ml IL-6R, 100 ng/ml IL-6) [13]: 0.55 nM
TF-1 cell assay EC50 (5 ng/ml IL-6) [14]: 0.18 nM
Kd [15]: 0.04 nM
EC50 [16]: 0.15 nM

B4: ID-58V (VHH)
VHH: B2 VHH with I29F, F65V
notes: Mutant of 5G9; also called 5G9 + F65V; not shown: C-terminal Flag- and His-tags of E. coli constructs
fold increase of IC50 against 5G9 [11]: ~3 fold
IC50 [12]: 0.36 nM

B5: ID-123V (VHH)
VHH: B2 VHH with I29S, Q47G, N82Y, K89R, R105H, F109H
notes: E. coli-produced trans-selective 5G9 derivative; E. coli version of ID-142V (lacks E1D); also called 5G9 + F29S, Q47G, N82Y, K89R, R105H, F109H; not shown: C-terminal FLAG-6xHis
M1 cellular assay EC50 (20 ng/ml IL-6R, 100 ng/ml IL-6) [13]: 4.2 nM
Kd [15]: 1.1 nM
TF-1 cell assay EC50 (5 ng/ml IL-6) [17]: 4.5 nM
EC50 [18]: 0.498 nM

B6: 20A11 (prior art comparative example) (VHH)
VHH: EVQLVESGGGLVQPGGSLRLSCAASGSVFKINVMAWYRQAPGKGRELVAGIISGGSTSYADSVKGRFTISRDNAKNTLYLQMNSLRPEDTAVYYCAFITTESDYDLGRRYWGQGTLVTVSS
notes: Prior art anti-IL-6R polypeptide disclosed in WO 2010/115998; also called PMP20A11
Ratio Cyno IC50/human IC50 (title: human IC50 divided by cynomolgous IC50) [19]: 2.3
IC50 [20]: 0.106 nM
IC50 of inhibition of IL-6-induced TF-1 cell proliferation [21]: 1.1 nM
IC50 [3]: 0.24 nM
TF-1 cell assay EC50 (5 ng/ml IL-6) [17]: 0.56 nM
EC50 [18]: 0.22 nM

B7: 7F6 (VHH)
VHH: EVQLVESGGGLVQAGGSTRLTCLASGSISSINVIGWYRQAPGKQRELVAMIGRGEGANYGDFAKGRFTISRDNSKNTVYLQMNSLKPEDTAVYYCYADYEDRDSPFNGSWGQGTQVTVSS
notes: also called VIL-7F6; 'Wild type' 7F6; not shown: C-terminal Flag and 6xHis tags from vector pMEK222
Ratio Cyno IC50/human IC50 (title: human IC50 divided by cynomolgous IC50) [19]: 1.2
IC50 [20]: 0.342 nM
IC50 of inhibition of IL-6-induced TF-1 cell proliferation [21]: 0.5 nM
IC50 [3]: 0.424 nM
IC50 in TF1 assay (separate assay, raised background) [22]: 3 nM
IC50 [23]: 0.11 nM
IC50 [24]: 0.16 nM
IC50 [25]: 0.15 nM
